# Where two headings read alike, the source gives them in different places.
# Assays:
# Assay in all cases: SPR
# [1] = target: complement factor H, allotypic variant Ile62 (human) (UniProt P08603)
# [2] = target: complement factor H, allotypic variant Val62 (human) (UniProt P08603)
# [3] = target: complement factor H, allotypic variant Ile62 (human) (UniProt P08603); remark: listed apart in the source
substance,measurement,setting,value
C3b (from UniProt P01024 23-667; P01024 749-1663) (domain or fragment),Kd,[1],1.04 µM
same,Kd,[2],1.33 µM
same,Kd,[3],1.03 µM
